In the supplement of paper PMC9233669:
This sample holds only a part of the variants without activity.

Experiments:
biotinyl-Met-oxazolone = assay: self-aminoacylation, catalytic enhancement (BMO) (fold over background); higher = more active; k-Seq, kA / k0A0; sequences stand for … in GGGAAUGGAUCCACAUCUACGAAUUC…UUCACUGCAGACUUGACGAAGCUG
Summary of the method: (§1)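 Mutagenized RNA pools with a 21-nt variable region (0.43 μM) were reacted with each biotinyl-aminoacyl-oxazolone at 2–1250 μM for 90 minutes at room temperature, in 50 μL HEPES/NaCl/KCl/MgCl2/CaCl2 buffer containing 5% acetonitrile at pH 6.9–7.0. RNA captured on streptavidin was quantified by triplicate qPCR and by Illumina sequencing. The fraction reacted for each sequence was fit to a pseudo-first-order model with bootstrapping, and catalytic enhancement is the median kA divided by the uncatalyzed rate, taken as the low-activity peak of a bimodal Gaussian fit.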

biotinyl-Trp-oxazolone = assay: self-aminoacylation, catalytic enhancement (BWO) (fold over background); higher = more active; k-Seq, kA / k0A0; sequences stand for … in GGGAAUGGAUCCACAUCUACGAAUUC…UUCACUGCAGACUUGACGAAGCUG
Summary of the method: as §1

biotinyl-Leu-oxazolone = assay: self-aminoacylation, catalytic enhancement (BLO) (fold over background); higher = more active; k-Seq, kA / k0A0; sequences stand for … in GGGAAUGGAUCCACAUCUACGAAUUC…UUCACUGCAGACUUGACGAAGCUG
Summary of the method: as §1

biotinyl-Ile-oxazolone = assay: self-aminoacylation, catalytic enhancement (BIO) (fold over background); higher = more active; k-Seq, kA / k0A0; sequences stand for … in GGGAAUGGAUCCACAUCUACGAAUUC…UUCACUGCAGACUUGACGAAGCUG
Summary of the method: as §1

biotinyl-Phe-oxazolone = assay: self-aminoacylation, catalytic enhancement (BFO) (fold over background); higher = more active; k-Seq, kA / k0A0; sequences stand for … in GGGAAUGGAUCCACAUCUACGAAUUC…UUCACUGCAGACUUGACGAAGCUG
Summary of the method: as §1

biotinyl-Val-oxazolone = assay: self-aminoacylation, catalytic enhancement (BVO) (fold over background); higher = more active; k-Seq, kA / k0A0; sequences stand for … in GGGAAUGGAUCCACAUCUACGAAUUC…UUCACUGCAGACUUGACGAAGCUG
Summary of the method: as §1

Row | Sequence | self-aminoacylation (biotinyl-Met-oxazolone) | self-aminoacylation (biotinyl-Trp-oxazolone) | self-aminoacylation (biotinyl-Leu-oxazolone) | self-aminoacylation (biotinyl-Ile-oxazolone) | self-aminoacylation (biotinyl-Phe-oxazolone) | self-aminoacylation (biotinyl-Val-oxazolone)
1 | AAGUUUGCUAAUAGCCGCAAA [Fam3.1 aminoacylation ribozyme variant] | 1.86 | 1.3 | 1.38 | 1.92 | 1.38 | 1.58
2 | AAGUUUGCUAAUAGCCGCCAG [Fam3.1 aminoacylation ribozyme variant] | 1.1 | 1.21 | 1.03 | 1.52 | 0.63 | 1.45
3 | AAGUUUGCUAAUAGGCGCAGG [Fam3.1 aminoacylation ribozyme variant] | 0.67 | 1.18 | 0.907 | 0.831 | 0.997 | 0.965
4 | AAGUUUGCUAAUAGGCGUAAG [Fam3.1 aminoacylation ribozyme variant] | 0.735 | 0.664 | 0.66 | 0.669 | 0.828 | 0.735
5 | AAGUUUGCUAAUAGUAACAAG [Fam3.1 aminoacylation ribozyme variant] | 1.52 | 1.41 | 1.12 | 1.19 | 1.58 | 1.1
6 | AAGUUUGCUAAUAGUAGCAAC [Fam3.1 aminoacylation ribozyme variant] | 0.942 | 0.859 | 0.631 | 1.09 | 1.08 | 1.15
7 | AAGUUUGCUAAUAGUAGCAAU [Fam3.1 aminoacylation ribozyme variant] | 1.57 | 1.78 | 1.11 | 1.32 | 1.15 | 1.32
8 | AAGUUUGCUAAUAGUCAUAAG [Fam3.1 aminoacylation ribozyme variant] | 1.27 | 5.59 | 1.15 | 1.44 | 17.9 | 1.25
9 | AAGUUUGCUAAUAGUCCCAAC [Fam3.1 aminoacylation ribozyme variant] | 0.505 | 0.629 | 0.585 | 0.639 | 1.04 | 0.643
10 | AAGUUUGCUAAUAGUCCCAAU [Fam3.1 aminoacylation ribozyme variant] | 0.987 | 1.28 | 1 | 1.3 | 1.36 | 0.912
11 | AAGUUUGCUAAUAGUCGAUAG [Fam3.1 aminoacylation ribozyme variant] | 0.781 | 0.829 | 0.805 | 0.824 | 1.42 | 0.846
12 | AAGUUUGCUAAUAGUCGCAAC [Fam3.1 aminoacylation ribozyme variant] | 0.904 | 1.06 | 0.816 | 0.972 | 1.28 | 0.935
13 | AAGUUUGCUAAUAGUCGCAGU [Fam3.1 aminoacylation ribozyme variant] | 1.91 | 3.14 | 1.66 | 1.33 | 8.27 | 1.34
14 | AAGUUUGCUAAUAGUCGCAUC [Fam3.1 aminoacylation ribozyme variant] | 0.649 | 0.681 | 0.61 | 0.778 | 1.53 | 0.706
15 | AAGUUUGCUAAUAGUCGCAUG [Fam3.1 aminoacylation ribozyme variant] | 0.93 | 0.976 | 0.932 | 1.03 | 1.47 | 0.916
16 | AAGUUUGCUAAUAGUCGCGAG [Fam3.1 aminoacylation ribozyme variant] | 1.33 | 2 | 1.29 | 1.33 | 2.01 | 1.2
17 | AAGUUUGCUAAUAGUCGCUAU [Fam3.1 aminoacylation ribozyme variant] | 1.26 | 1.08 | 1.06 | 1.31 | 1.39 | 0.984
18 | AAGUUUGCUAAUAGUCGGAAU [Fam3.1 aminoacylation ribozyme variant] | 1.5 | 1.18 | 1.41 | 1.37 | 1.54 | 1.41
19 | AAGUUUGCUAAUAGUCGUAAG [Fam3.1 aminoacylation ribozyme variant] | 1.34 | 8.22 | 0.914 | 1.19 | 33 | 1.05
20 | AAGUUUGCUAAUAGUCGUAAU [Fam3.1 aminoacylation ribozyme variant] | 1.19 | 1.13 | 1.07 | 1.19 | 1.24 | 1.23
21 | AAGUUUGCUAAUAGUGGCACG [Fam3.1 aminoacylation ribozyme variant] | 0.636 | 0.733 | 0.622 | 0.684 | 0.682 | 0.689
22 | AAGUUUGCUAAUCGCCGCAAG [Fam3.1 aminoacylation ribozyme variant] | 1.56 | 4.38 | 1.54 | 1.97 | 2.82 | 1.47
23 | AAGUUUGCUAAUCGUCGGAAG [Fam3.1 aminoacylation ribozyme variant] | 0.704 | 1.42 | 0.799 | 0.972 | 1.64 | 0.869
24 | AAGUUUGCUAAUCUUCGCAAG [Fam3.1 aminoacylation ribozyme variant] | 1.07 | 1.19 | 0.95 | 1.11 | 0.816 | 1.07
25 | AAGUUUGCUAAUGGUCGCCAG [Fam3.1 aminoacylation ribozyme variant] | 1.09 | 1.52 | 1.11 | 1.1 | 5.81 | 0.896
26 | AAGUUUGCUAAUUCUCGCAAG [Fam3.1 aminoacylation ribozyme variant] | 1.06 | 2.64 | 1.08 | 1.26 | 0.747 | 0.999

Row | Sequence | self-aminoacylation (biotinyl-Met-oxazolone) | self-aminoacylation (biotinyl-Trp-oxazolone) | self-aminoacylation (biotinyl-Leu-oxazolone) | self-aminoacylation (biotinyl-Ile-oxazolone) | self-aminoacylation (biotinyl-Phe-oxazolone) | self-aminoacylation (biotinyl-Val-oxazolone)
27 | AAGUUUGCUAAUUGUCGCAGG [Fam3.1 aminoacylation ribozyme variant] | 1.43 | 1.34 | 1.45 | 1.19 | 2.72 | 1.3
28 | AAGUUUGCUAAUUGUCGCAUG [Fam3.1 aminoacylation ribozyme variant] | 1.18 | 1.49 | 1.32 | 0.982 | 1.11 | 1.07
29 | AAGUUUGCUAAUUGUCGCUAG [Fam3.1 aminoacylation ribozyme variant] | 1 | 1.08 | 1.17 | 0.95 | 0.848 | 1.02
30 | AAGUUUGCUAAUUGUUGCAAG [Fam3.1 aminoacylation ribozyme variant] | 0.901 | 0.926 | 0.945 | 0.929 | 1.11 | 0.775
31 | AAGUUUGCUACUAGUCGCAAG [Fam3.1 aminoacylation ribozyme variant] | 0.802 | 0.775 | 0.766 | 0.824 | 1.13 | 0.838
32 | AAGUUUGCUACUAGUCGGAAG [Fam3.1 aminoacylation ribozyme variant] | 0.712 | 0.866 | 0.518 | 0.835 | 0.777 | 0.749
33 | AAGUUUGCUACUAGUCGUAAG [Fam3.1 aminoacylation ribozyme variant] | 0.848 | 0.867 | 0.759 | 0.772 | 0.833 | 0.783
34 | AAGUUUGCUACUUGUCGCAAG [Fam3.1 aminoacylation ribozyme variant] | 0.928 | 1.21 | 1.06 | 1.05 | 1.01 | 1.12
35 | AAGUUUGCUAGUAGUAGCAAG [Fam3.1 aminoacylation ribozyme variant] | 0.808 | 1.2 | 1 | 1.24 | 1.62 | 1.18
36 | AAGUUUGCUAGUAGUCCCAAG [Fam3.1 aminoacylation ribozyme variant] | 0.75 | 1.68 | 0.873 | 1.01 | 1.65 | 1.14
37 | AAGUUUGCUAGUAGUCGCAAG [Fam3.1 aminoacylation ribozyme variant] | 0.745 | 0.851 | 0.706 | 0.746 | 1.13 | 0.773
38 | AAGUUUGCUAUUACUCGCAAG [Fam3.1 aminoacylation ribozyme variant] | 0.734 | 0.738 | 0.82 | 0.728 | 1.09 | 0.868
39 | AAGUUUGCUAUUAGGCGCAAG [Fam3.1 aminoacylation ribozyme variant] | 0.591 | 0.841 | 0.546 | 0.746 | 0.81 | 0.681
40 | AAGUUUGCUAUUAGUCGCAAG [Fam3.1 aminoacylation ribozyme variant] | 0.814 | 0.826 | 0.76 | 0.848 | 1.08 | 0.823
41 | AAGUUUGCUAUUAGUCGCCAG [Fam3.1 aminoacylation ribozyme variant] | 0.864 | 0.849 | 1.12 | 1.01 | 0.947 | 0.818
42 | AAGUUUGCUAUUAGUCUCAAG [Fam3.1 aminoacylation ribozyme variant] | 0.976 | 0.975 | 0.928 | 0.998 | 1.66 | 1.07
43 | AAGUUUGCUCAUACUCGCAAG [Fam3.1 aminoacylation ribozyme variant] | 0.742 | 0.748 | 0.715 | 0.777 | 0.813 | 0.752
44 | AAGUUUGCUCAUAGUAGCAAG [Fam3.1 aminoacylation ribozyme variant] | 0.727 | 0.786 | 0.817 | 0.928 | 1.58 | 1.09
45 | AAGUUUGCUCAUAGUUGCAAG [Fam3.1 aminoacylation ribozyme variant] | 0.916 | 0.888 | 0.896 | 0.916 | 1.04 | 0.772
46 | AAGUUUGCUGAUAGCCGCAAG [Fam3.1 aminoacylation ribozyme variant] | 0.91 | 0.586 | 0.736 | 0.846 | 1.49 | 0.968
47 | AAGUUUGCUGAUAGUAGCAAG [Fam3.1 aminoacylation ribozyme variant] | 1.07 | 1.05 | 0.88 | 0.892 | 1.41 | 1.24
48 | AAGUUUGCUGAUAGUCACAAG [Fam3.1 aminoacylation ribozyme variant] | 1.2 | 1.62 | 1.08 | 1.15 | 1.23 | 1.28
49 | AAGUUUGCUGAUAGUCCCAAG [Fam3.1 aminoacylation ribozyme variant] | 0.626 | 1.08 | 0.786 | 1.17 | 0.972 | 0.847
50 | AAGUUUGCUGAUAGUCGCCAG [Fam3.1 aminoacylation ribozyme variant] | 1.41 | 1.44 | 2.22 | 1.38 | 4.26 | 1.53
51 | AAGUUUGCUGAUAGUCGUAAG [Fam3.1 aminoacylation ribozyme variant] | 0.951 | 0.823 | 0.674 | 0.854 | 0.944 | 0.93
